# Patent US10172850B2, “Substituted diketopiperazine analogs for use as drug delivery agents” (MannKind Corporation, priority 2008, dated 2019)
# Experiments:
# [1] = Mean serum insulin concentrations in rats administered DKP and insulin powders (Example 5, FIG. 8); details: 20 minutes post dose; 1.4 mg insulin in saline; pulmonary liquid instillation (INS)
# Method: (§4) Blood samples were taken on the day of dosing for each rat per group at pre-dose (0 minutes), 5, 20, 40, 60, and 120 minutes post dose. […] Body weights ranged from 214-250 grams.
# [2] = Mean serum insulin levels and relative bioavailability of substituted DKP/insulin powders (Example 6, FIG. 10, Table 2)
# From the text: (§1) For this study, substituted diketopiperazine/insulin powders were made each containing either (E)-3-(4-(3,6-dioxopiperazin-2-yl)butylcarbamoyl)-acrylic acid (Compound 3) and insulin; or (E)-3-(3-(3,6-dioxopiperazin-2-yl)propylcarbamoyl)-acrylic acid (Compound 4) and insulin; or (E)-3-(4-(5-isopropyl-(3,6-dioxopiperazin-2-yl)butylcarbamoyl)-acrylic acid (Compound 5) and insulin, and administered to each of 3 female Sprague Dawley rats per group via pulmonary insufflation.
# (§2) The rats were divided into 5 groups as follows. Group 1 rats received a formulation containing Compound 3 with an 11.4% insulin content (Formulation 3) via pulmonary insufflation. Group 2 rats were administered a formulation Compound 3 with a 25% insulin content (Formulation 3) by pulmonary insufflation. Group 3 rats received a formulation of Compound 4 with an 11.4% insulin content (Formulation 4) by pulmonary insufflation. Group 4 rats received a formulation of Compound 5 with 11.4% insulin content by pulmonary insufflation. Group 5 rats received insulin (0.5 U/kg) via subcutaneous administration.
# (§3) Blood samples were taken on the day of dosing for each rat per group before (0 minutes) and 10, 20, 40, and 60 minutes after administration of the formulations, except for the insulin control group (group 5), for which an additional sample was collected at 120 minutes after dosing. At each time point, approximately 10 μL of whole blood was collected from the lateral tail vein of rats in each group and analyzed for measurements of insulin and glucose concentrations.
# [3] = Mean glucose levels in rats administered various substituted DKP/insulin powders (Example 6, FIG. 9); format: in vivo, female Sprague Dawley rats; details: insulin 0.5 U/kg subcutaneous, pre-dose 132 mg/dL
# From the text: as §1, §2, §3
# [4] = rat, in vivo
# Method: as §4
# [5] = serum insulin, insulin 0.5 U/kg subcutaneous
insulin concentration [4] [μU/mL],Molecule,serum insulin concentration [1] [μU/mL],"serum insulin concentration ([2]; 20 minutes post dose, insulin by subcutaneous injection) [μU/mL]",BIOAVAILABILITY ([2]; insulin 0.5 U/kg subcutaneous (reference)) [%],"Tmax [2, 5] [min]","T½ [2, 5] [min]",blood glucose level ([3]; 40 minutes post dose) [mg/dL],blood glucose level ([3]; 1 hour post dose) [mg/dL],blood glucose level ([3]; 2 hours post dose) [mg/dL]
,insulin,6703,9360,100,20,9.18,43,42,34
505,"O=C(O)/C=C/C(=O)NCCCC1NC(=O)C(CCCNC(=O)/C=C/C(=O)O)NC1=O (stereo not drawn) [Compound 2, (E)-3,6-bis[(N-carboxy-2-propenyl)-amidopropyl]-2,5-diketopiperazine]",,,,,,,,
